According to patent US20200239888, “COMPOSITIONS AND METHODS FOR MODULATION OF PROTEIN AGGREGATION” (Ionis Pharmaceuticals, Inc., published 2020):

B1: JB42 (RNA, phosphorothioate) (ssRNA)
RNA: CUGCUAGCCUCUGGAUUUGA
modifications: full PS
B2: JB41 (DNA, phosphorothioate) (ssDNA)
DNA: CTGCTAGCCTCTGGATTTGA
modifications: full PS

Molecular target: FUS(1-526)[P525L]-NLUC-FLAG (UniProt P35637 P35637:1-526, P525L)
Assay: competition; competitive nanoBRET vs AF594-JB39; reported as KD (50% dissociation of BRET pair); table prints NLUC-HA, text NLUC-FLAG
Details: tags: C-terminal NLUC-FLAG; PURExpress
Protocol: Competitive NanoBRET binding assays were performed with unlabeled oligonucleotides JB40, JB41, and JB42. First, the relative amount of purified protein per volume of bead suspension (based on nluc activity) was determined in 2× binding buffer (200 mM potassium acetate, 40 mM Tris pH 8.0, 2 mM EDTA, 0.02% NP-40, 6 μg/mL BSA, and 1:1000 Promega Nano-Glo luciferase substrate) using an eight-point dilution curve over ˜3.5 orders of magnitude. Alexafluor594-labeled JB39 was diluted into water in opaque white 96-well plates a single concentration, and varying concentrations of JB40, JB41, or JB42, spanning the pM to low μM range were added to a final total volume of 50 μL/well. 50 μL/well of 2× binding buffer containing 10⁶ RLU (relative luminescence units) beads/well was added and plates were shaken for 10 minutes at room temperature. Nanoluciferase activity and BRET were measured in a Glowmax Discover plate reader and KD values, shown in the table below, were calculated using GraphPad Prism.

Sequence of FUS(1-526)[P525L]-NLUC-FLAG (P35637 whole entry P525L, one chain of several): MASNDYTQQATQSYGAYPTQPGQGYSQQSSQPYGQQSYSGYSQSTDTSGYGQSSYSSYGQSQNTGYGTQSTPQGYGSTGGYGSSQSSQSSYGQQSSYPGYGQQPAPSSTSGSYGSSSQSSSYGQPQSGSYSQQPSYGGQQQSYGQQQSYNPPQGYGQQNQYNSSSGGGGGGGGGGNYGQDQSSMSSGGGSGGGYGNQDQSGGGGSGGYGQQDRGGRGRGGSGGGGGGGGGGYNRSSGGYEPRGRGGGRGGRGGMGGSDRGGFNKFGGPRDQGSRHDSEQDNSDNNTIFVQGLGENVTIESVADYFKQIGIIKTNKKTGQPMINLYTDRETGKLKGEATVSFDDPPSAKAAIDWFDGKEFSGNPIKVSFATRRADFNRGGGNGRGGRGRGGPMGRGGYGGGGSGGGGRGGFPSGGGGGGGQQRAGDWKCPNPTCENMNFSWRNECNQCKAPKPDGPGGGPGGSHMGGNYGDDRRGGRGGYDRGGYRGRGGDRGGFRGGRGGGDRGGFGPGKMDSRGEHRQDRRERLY

Binder | IC50
B1 | 7.2 nM
B2 | 0.4 nM
